Columns and labels:
TNF-alpha [1] = experiment: Biacore 3000 SPR; Fc fusion loaded into the flow cell, exposed to TNF
TNF-alpha [2] = experiment: cell-based or functional assay

Row | Substance | KD (TNF-alpha), normalized to TNFR-h(1)Fc wt (fold of wt (normalized)) (TNF-alpha [1]) | IC50 (WEHI Assay), normalized to TNFR-h(1)Fc wt (fold of wt (normalized)) (TNF-alpha [2])
1 | T203N P205S TNFR2-h(1)Fc (Fc fusion) | 0.33 | 0.29
2 | E155N S202N G253N TNFR2-h(1)Fc (Fc fusion) | 1 | 0.25
3 | S202N G253N TNFR2-h(1)Fc (Fc fusion) | 1.05 | 0.23
4 | D47N TNFR2-h(1)Fc (Fc fusion) | 1.6 | 1.9
5 | E155N G253N TNFR2-h(1)Fc (Fc fusion) | 3.6 | 0.57

Other lines, results leading:

Row | KD (TNF-alpha), normalized to TNFR-h(1)Fc wt (fold of wt (normalized)) (TNF-alpha [1]) | IC50 (WEHI Assay), normalized to TNFR-h(1)Fc wt (fold of wt (normalized)) (TNF-alpha [2]) | Substance
6 | 55 | 3 | D47N/G253N TNFR2-h(1)Fc (Fc fusion)
7 | 2.6 | 1.6 | D47N/E155N TNFR2-h(1)Fc (Fc fusion)
8 | 4.4 | 1.1 | D47N S202N TNFR2-h(1)Fc (Fc fusion)
9 | 0.78 | 0.25 | T222N TNFR2-h(1)Fc (Fc fusion)

Reference: patent publication US20130084291A1
